# Source: US20100204053
# System: RSK2
# Sequence (chain, as listed by the source): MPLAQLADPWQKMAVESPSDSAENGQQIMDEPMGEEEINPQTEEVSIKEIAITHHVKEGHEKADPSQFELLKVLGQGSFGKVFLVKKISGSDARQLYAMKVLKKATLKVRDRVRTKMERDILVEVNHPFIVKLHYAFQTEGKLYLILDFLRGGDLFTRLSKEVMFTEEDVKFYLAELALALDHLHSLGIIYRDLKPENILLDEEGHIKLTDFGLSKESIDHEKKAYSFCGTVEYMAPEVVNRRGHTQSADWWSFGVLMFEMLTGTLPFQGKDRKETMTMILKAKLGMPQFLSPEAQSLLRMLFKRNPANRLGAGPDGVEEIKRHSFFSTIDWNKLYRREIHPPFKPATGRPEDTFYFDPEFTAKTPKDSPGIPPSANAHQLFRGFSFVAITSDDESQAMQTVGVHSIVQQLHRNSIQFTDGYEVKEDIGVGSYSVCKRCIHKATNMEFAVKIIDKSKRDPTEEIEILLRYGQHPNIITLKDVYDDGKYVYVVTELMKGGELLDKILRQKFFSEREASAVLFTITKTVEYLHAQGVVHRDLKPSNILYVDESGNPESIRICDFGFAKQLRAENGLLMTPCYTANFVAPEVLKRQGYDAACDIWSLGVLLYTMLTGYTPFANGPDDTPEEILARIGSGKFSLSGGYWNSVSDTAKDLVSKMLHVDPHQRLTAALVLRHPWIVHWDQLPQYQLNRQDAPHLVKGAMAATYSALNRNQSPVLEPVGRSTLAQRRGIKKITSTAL
substance,measurement,value
WWP1,RSK2 ubiquitination,SHN3 and WWP1 can promote RSK2 ubiquitination
